Assay results: patent publication US20020142982A1 (published 2002)

Target: T1, beta-catenin (endogenous, HUVEC) (human (HUVEC), UniProt P35222 2-781)
T1 construct: also called β-catenin
T1 sequence (looked up): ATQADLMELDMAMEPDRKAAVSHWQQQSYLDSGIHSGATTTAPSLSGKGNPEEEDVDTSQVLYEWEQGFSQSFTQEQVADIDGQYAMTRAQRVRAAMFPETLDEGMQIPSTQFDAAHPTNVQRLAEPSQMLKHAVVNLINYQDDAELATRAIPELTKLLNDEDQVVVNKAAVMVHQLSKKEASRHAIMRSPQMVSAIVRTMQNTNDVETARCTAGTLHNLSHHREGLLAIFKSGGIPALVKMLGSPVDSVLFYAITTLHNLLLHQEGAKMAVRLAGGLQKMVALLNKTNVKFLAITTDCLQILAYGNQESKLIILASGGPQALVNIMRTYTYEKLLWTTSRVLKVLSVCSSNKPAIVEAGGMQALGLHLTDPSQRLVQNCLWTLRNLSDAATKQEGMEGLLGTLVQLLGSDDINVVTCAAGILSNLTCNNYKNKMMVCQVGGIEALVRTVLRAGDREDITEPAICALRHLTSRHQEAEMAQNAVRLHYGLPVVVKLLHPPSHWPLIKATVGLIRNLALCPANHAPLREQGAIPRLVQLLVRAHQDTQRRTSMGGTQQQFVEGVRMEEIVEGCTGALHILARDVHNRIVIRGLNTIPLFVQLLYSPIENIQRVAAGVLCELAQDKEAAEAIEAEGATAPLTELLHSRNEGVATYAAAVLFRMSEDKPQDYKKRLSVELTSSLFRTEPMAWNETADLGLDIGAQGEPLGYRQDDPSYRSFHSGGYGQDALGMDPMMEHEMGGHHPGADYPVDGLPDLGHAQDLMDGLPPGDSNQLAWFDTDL
Assay: co-immunoprecipitation of 35S-labelled, DSP cross-linked detergent-insoluble HUVEC extracts
Experimental: HUVEC were labeled to steady state with ^35Smethionine (250 μCi/mL, NEN DuPont) for 24 hours. After stimulation with 500 nM SPP for 1 hour, cells were fractionated with 0.5% TX-100. After centrifugation (15,000 g, 15 minutes), the protein complexes in detergent-insoluble fractions were cross-linked with 0.5 mM Dithiobis[succinimidyl propionate] (DSP; Pierce Chemical Co., Rockford, Ill.) (Hinck, L., J. Cell Biol. 125: 1327-1340 (1994)), and extracted with 1% TX-100-1% SDS as described above. Cell extracts were then immunoprecipitated with antibodies to VE cadherin, β-catenin, γ-catenin, or p120 Src (p120^cas, Transduction Laboratories). The immunoprecipitated complexes were then reduced by incubating in sample buffer containing 2% β-mercaptoethanol at 95° C. for 10 minutes, 10 μL dithiothreitol (1 M) was added to each gel lanes before protein separation by SDS-PAGE.

binding result: no binding
B1: gamma-catenin (endogenous, HUVEC) (other, human (HUVEC), UniProt P14923 1-745, looked up)
chain: MEVMNLMEQPIKVTEWQQTYTYDSGIHSGANTCVPSVSSKGIMEEDEACGRQYTLKKTTTYTQGVPPSQGDLEYQMSTTARAKRVREAMCPGVSGEDSSLLLATQVEGQATNLQRLAEPSQLLKSAIVHLINYQDDAELATRALPELTKLLNDEDPVVVTKAAMIVNQLSKKEASRRALMGSPQLVAAVVRTMQNTSDLDTARCTTSILHNLSHHREGLLAIFKSGGIPALVRMLSSPVESVLFYAITTLHNLLLYQEGAKMAVRLADGLQKMVPLLNKNNPKFLAITTDCLQLLAYGNQESKLIILANGGPQALVQIMRNYSYEKLLWTTSRVLKVLSVCPSNKPAIVEAGGMQALGKHLTSNSPRLVQNCLWTLRNLSDVATKQEGLESVLKILVNQLSVDDVNVLTCATGTLSNLTCNNSKNKTLVTQNSGVEALIHAILRAGDKDDITEPAVCALRHLTSRHPEAEMAQNSVRLNYGIPAIVKLLNQPNQWPLVKATIGLIRNLALCPANHAPLQEAAVIPRLVQLLVKAHQDAQRHVAAGTQQPYTDGVRMEEIVEGCTGALHILARDPMNRMEIFRLNTIPLFVQLLYSSVENIQRVAAGVLCELAQDKEAADAIDAEGASAPLMELLHSRNEGTATYAAAVLFRISEDKNPDYRKRVSVELTNSLFKHDPAAWEAAQSMIPINEPYGDDMDATYRPMYSSDVPLDPLEMHMDMDGDYPIDTYSDGLRPPYPTADHMLA
notes: also called γ-catenin
